{
  "source": "patent US7572770B2",
  "about": "“Use of an interleukin 1 receptor antagonist and/or pyrrolidinedithiocarbamate for the treatment or prophylaxis of type 2 diabetes” (University of Zurich, priority 2002, dated 2009)",
  "key": {"Fas": {"system": "Fas", "assay": "Fas expression in human islets (Western blot, RT-PCR, immunostaining)", "format": "cell-based", "conditions": "33.3 mM glucose with IL-1Ra", "protocol": "Western blot analysis. Islets were cultured in a culture medium in non-adherent plastic dishes. One day after isolation, the medium was changed and groups of 200 islets were incubated for 44 hours in culture medium containing 5.5 or 33.3 mM glucose without or with 2 ng/ml IL-1β or 500 ng/ml IL-1Ra. At the end of the incubations, islets were washed in PBS, suspended in 50 μl sample buffer containing 125 mM Tris-HCl, pH 6.8, 4% SDS, 10% glycerol, 0.3% bromphenol blue, 1.8% β-mercaptoethanol and boiled for 5 min. Equivalent amounts of each treatment group were run on 15% SDS polyacrylamide gels. […] Intensity of bands was analyzed using Multianalyst™ (Bio Rad, Laboratories inc., Hercules, Calif.).\nRNA extraction, RT-PCR and sequencing of RT-PCR product. […] The conditions of the PCR amplification for IL-1β and Fas were: denaturation 30 seconds at 94° C., annealing 30 seconds at 60° C. and elongation 30 seconds at 72° C., followed for real time PCR by quantification 5 seconds at 80° C., 45 cycles. […] For quantitative analysis, we used the Light Cycler quantitative PCR system (Roche, Basel, Switzerland) and performed quantitative PCR with a commercial kit (Light Cycler-DNA Master SYBR Green I; Roche). […]"}, "[1]": {"conditions": "cited from earlier work"}, "human islets": {"system": "human islets", "assay": "Insulin release and content of human islets", "format": "cell-based", "protocol": "Islet isolation and culture. Islets were isolated from pancreases of eleven organ donors at the Department of Surgery, University of Geneva Medical Center, as described (32-34). The islet purity was >95%, as judged by dithizone staining (if this degree of purity was not primarily achieved by routine isolation, islets were handpicked). […] For long-term in vitro studies, the islets were cultured on extracellular matrix-coated plates derived from bovine corneal endothelial cells (Novamed Ltd., Jerusalem, Israel), allowing the cells to attach to the dishes and spread, preserving their functional integrity (7;35). Islets were cultured in CMRL 1066 medium containing 100 U/ml penicillin, 100 μg/ml streptomycin and 10% fetal calf serum (Gibco, Gaithersburg, Md.), hereinafter referred to as culture medium. Two days after plating, when most islets were attached and began to flatten, the medium was changed to culture medium containing 5.5, 11.1 or 33.3 mM glucose. In some experiments, islets were additionally cultured with 2 ng/ml recombinant human IL-1β, 1000 U/ml recombinant human IFNγ (ReproTech EC Ltd, London, UK), 500 ng/ml IL-1β receptor antagonist (IL-1Ra) (R&D Systems Inc., Minneapolis, Minn.), 1 ng/ml membrane bound Fas-ligand (FasL) (36) (upstate biotechnology, Lake Placid, N.Y.) or with 100 μM pyrrolidinedithiocarbamate (PDTC; Sigma; 2 h per 2 d of culture).\nInsulin release and content. To determine acute insulin release in response to glucose stimulation, islets were washed in RPMI 1640 medium with 10% FCS and containing 3.3 mM glucose and pre-incubated for 1 h in the same medium. The medium was then discarded and replaced with fresh medium containing 3.3 mM glucose for 1 h for basal secretion, followed by an additional 1 h incubation in medium containing 16.7 mM glucose. Incubates were collected and frozen for insulin assays. […] Insulin was determined by a human insulin RIA kit (CIS bio international, Gif-Sur-Yvette, France)."}},
  "data": [
    {"substance": "Interleukin 1 receptor antagonist [IL-1Ra]", "values": [
      {"measurement": "glucose-dependent induction of Fas-receptor protein and mRNA", "setting": "Fas", "result": "hindered"},
      {"measurement": "patients with infections", "setting": "[1]; human, in vivo", "result": 40, "unit": "%"},
      {"measurement": "patients with serious infections", "setting": "[1]; human, in vivo", "result": 1.8, "unit": "%"},
      {"measurement": "patients developing neutropenia (absolute neutrophil count 1×10^9/l or less)", "setting": "[1]; placebo-controlled trials, rheumatoid arthritis", "result": 0.3, "unit": "%"},
      {"measurement": "patients requiring discontinuation of treatment (injection site reactions)", "setting": "[1]; rheumatoid arthritis patients", "result": "up to 5%"},
      {"measurement": "most commonly reported adverse effects", "setting": "[1]; subcutaneous treatment, rheumatoid arthritis patients", "result": "Injection site reactions"},
      {"measurement": "acute glucose-stimulated insulin release, co-incubation", "setting": "human islets; 33.3 mM glucose or IL-1β for 4 days plus IL-1Ra or PDTC", "result": "partially restored such glucose stimulation"},
      {"measurement": "insulin content of islets", "setting": "human islets; high glucose with IL-1Ra, 4 days", "result": "remained unaffected"}
    ]}
  ]
}
